According to patent US12427188B2, “Pyocyanine demethylases and related phenazine degrading agents compositions, methods and systems for interfering with viability of bacteria” (priority 2020, dated 2025):

Assay: Continuous spectrophotometric PYO demethylation assay (specific activity and kinetics of PodA)
Type: biochemical
Details: PodA 3 μM, PYO varying
Method: Specific activity and kinetics of PodA. To determine specific activity and kinetic parameters of PodA for PYO, a continuous spectrophotometric assay monitoring the absorbance of PYO (690 nm) was utilized. Briefly, assays were performed at 25° C. in 100 μL reaction volumes in 96-well plates and reactions were monitored at 690 nm over 10 min. Reaction mixtures contained Phosphate buffer (50 mM, pH 6.0), ethylene glycol (1%, v/v), protein (3 μM) and substrate (for specific activity, 100 μM, for kinetics, varying). Data were acquired using the SpectraMax® M3 Microplate Reader (Molecular Devices) using the Soft Max Pro software every 10 s over 10 min. Path lengths for each well were calculated using Soft Max Pro endpoint readings and slopes were corrected for path lengths of 1 cm.
Specific activity was calculated from the slope of the linear range of (ΔOD690 min^−1) using Beer's Law (A=εcl) with a path length of 1 cm and the molar extinction coefficient of PYO (4,130 M^−1 cm^−1). Equation was solved for c, giving specific activity in nmol min^−1 mg^−1 of PodA. For kinetic parameters, graphs of initial velocity (μM s^−1) versus substrate concentration (μM) were plotted using Prism v8 (GraphPad). The Michaelis-Menten kinetics model was used to determine Km and Vmax. The turnover number (kcat) was determined using the following equation: Vmax=kcat[E], where [E] was the concentration of PodA added. All spectrophotometric assays mentioned above were completed thrice, each in technical triplicate with a representative data set shown. Error bars represent standard deviation as calculated by Prism v8 (GraphPad). Standard deviation for kcat and Kcat KM^−1 was calculated using standard formulas for propagation of error.

Molecule | Activity of active site variants compared to controls | Michaelis-Menten behaviour
PodA^D72A: PodA active site variant D72A (protein) MTGKTKPAIIGGVAITALAAAGLGVWLFTDGRGGRSTTEPVTMTLDVKNDQVAKHDFGKPGMDVGDMDIFSAILSVDGKQVGYDGGACFFTNVTPDNPMTYCELTIHLDAGEIFARSLTPHTLAPFTMAITGGTGEYANSKGELTVSGVATPDEKYELKLTK | did not have measurable activity | –
PodA^D68A: PodA variant inhibiting product release, D68A (protein) MTGKTKPAIIGGVAITALAAAGLGVWLFTDGRGGRSTTEPVTMTLDVKNDQVAKHDFGKPGMDVGDMAIFSDILSVDGKQVGYDGGACFFTNVTPDNPMTYCELTIHLDAGEIFARSLTPHTLAPFTMAITGGTGEYANSKGELTVSGVATPDEKYELKLTK | – | maintained similar Michaelis-Menten trends for concentrations of PYO under 100 μM, after which Vmax leveled off
PodA^E154A: PodA active site variant E154A, inactive (protein) MTGKTKPAIIGGVAITALAAAGLGVWLFTDGRGGRSTTEPVTMTLDVKNDQVAKHDFGKPGMDVGDMDIFSDILSVDGKQVGYDGGACFFTNVTPDNPMTYCELTIHLDAGEIFARSLTPHTLAPFTMAITGGTGEYANSKGELTVSGVATPDAKYELKLTK | did not have measurable activity | –
PodA^H121K: PodA active site variant H121K (protein) MTGKTKPAIIGGVAITALAAAGLGVWLFTDGRGGRSTTEPVTMTLDVKNDQVAKHDFGKPGMDVGDMDIFSDILSVDGKQVGYDGGACFFTNVTPDNPMTYCELTIHLDAGEIFARSLTPKTLAPFTMAITGGTGEYANSKGELTVSGVATPDEKYELKLTK | did not have measurable activity | –
PodA^Y156F: PodA active site variant Y156F (protein) MTGKTKPAIIGGVAITALAAAGLGVWLFTDGRGGRSTTEPVTMTLDVKNDQVAKHDFGKPGMDVGDMDIFSDILSVDGKQVGYDGGACFFTNVTPDNPMTYCELTIHLDAGEIFARSLTPHTLAPFTMAITGGTGEYANSKGELTVSGVATPDEKFELKLTK | did not have measurable activity | –
PodA^H121R: PodA active site variant H121R (protein) MTGKTKPAIIGGVAITALAAAGLGVWLFTDGRGGRSTTEPVTMTLDVKNDQVAKHDFGKPGMDVGDMDIFSDILSVDGKQVGYDGGACFFTNVTPDNPMTYCELTIHLDAGEIFARSLTPRTLAPFTMAITGGTGEYANSKGELTVSGVATPDEKYELKLTK | did not have measurable activity | –
PodA^Y156A: PodA active site variant Y156A (protein) MTGKTKPAIIGGVAITALAAAGLGVWLFTDGRGGRSTTEPVTMTLDVKNDQVAKHDFGKPGMDVGDMDIFSDILSVDGKQVGYDGGACFFTNVTPDNPMTYCELTIHLDAGEIFARSLTPHTLAPFTMAITGGTGEYANSKGELTVSGVATPDEKAELKLTK | did not have measurable activity | –
PodA^H121A: PodA active site variant H121A (protein) MTGKTKPAIIGGVAITALAAAGLGVWLFTDGRGGRSTTEPVTMTLDVKNDQVAKHDFGKPGMDVGDMDIFSDILSVDGKQVGYDGGACFFTNVTPDNPMTYCELTIHLDAGEIFARSLTPATLAPFTMAITGGTGEYANSKGELTVSGVATPDEKYELKLTK | did not have measurable activity | –
